Experimental data reported in PMC7940618, “Specific inhibition of the Survivin–CRM1 interaction by peptide-modified molecular tweezers” (Nature Communications, 2021).
pKd: −log10 of the molar value.

Columns and labels:
[1] = molecular target: TW-ELTL (asymmetrical molecular tweezer linked to the short peptide ELTL) (human); assay: ITC; tweezer conjugate (100 µM) in the cell, Survivin120 (1.2 mM WT or 2.5 mM K90/103T) in the syringe; PBS pH 7.4, 25 °C; one set of sites model
[2] = molecular target: TW-ELTLGEFL (asymmetrical molecular tweezer linked to the elongated peptide ELTLGEFL) (human); assay: as above
[3] = molecular target: TW-LFEEGLLT (scrambled peptide-modified tweezer); assay: as above
[4] = molecular target: TW-ELTL-FAM (human); assay: fluorescence polarisation; fluorescence anisotropy; 200 nM FAM-labeled tweezer titrated with Survivin120 (to 180 µM) or K90/103T (to 350 µM); PBS pH 7.4, 25 °C; single-site model
[5] = molecular target: TW-ELTLGEFL-FAM (human); assay: as above

Survivin120 (truncated Survivin, aa 1-120) (from UniProt O15392 1-120) (domain or fragment)
pKd [1]: 4.62 | stoichiometry N (ligand/protein) [1]: 2 | pKd [2]: 4.72 | stoichiometry N (ligand/protein) [2]: 2 | pKd [3]: 4.17 | pKd [4]: 4.59 | pKd [5]: 5.30
